This passage reports unfolding free energy results from FireProtDB (doi:10.1073/pnas.90.18.8367).

The conditions of the data set: Enterobacteria phage fd; pH 7; 25 °C; GdnHCl; CD; MOPS 50 mM; NaCl 100 mM; reversible: yes; whole UniProt chain shown.

B1: DNA-Binding protein G5P wild type, P69542 (protein)
chain: MIKVEIKPSQAQFTTRSGVSRQGKPYSLNEQLCYVDLGNEYPVLVKITLDEGQPAYAPGLYTVHLSSFKVGQFGSLMIDRLRLVPAK
As to B1, the unfolding free energy turned out to be 9 kcal/mol.
